Columns and labels:
[1] = molecular target: T1, human CD3 expressed in Jurkat cells (human, UniProt P07766 23-207; P04234 22-171; P20963 22-164; P09693 23-182); assay: cell-based or functional assay
hFcεR1α.MMH [2] = molecular target: T2, hFcεR1α.MMH (human); assay: SPR (Biacore 8k), antibody captured on anti-human Fc, hFcεR1α.MMH injected, 25°C
T2 construct: also called ectodomain of human FcεR1α with C-term myc-myc-6×His tag
T2 chain: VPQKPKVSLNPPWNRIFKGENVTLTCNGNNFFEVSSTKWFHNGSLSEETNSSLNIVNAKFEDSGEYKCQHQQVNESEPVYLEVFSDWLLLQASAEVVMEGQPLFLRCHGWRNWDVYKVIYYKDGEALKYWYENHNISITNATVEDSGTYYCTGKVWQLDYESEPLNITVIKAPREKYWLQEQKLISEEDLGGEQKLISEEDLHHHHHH
Protocol: (§1) Equilibrium dissociation constants (KD) for human or cynomolgus FcεR1α ectodomain binding to purified anti-FcεR1α monoclonal antibodies (mAbs) and CD3×FcεR1α bispecific antibodies (bsAbs) were determined using a real-time surface plasmon resonance biosensor (SPR-Biacore), Biacore 8k. All binding studies were performed in 10 mM HEPES, 150 mM NaCl, 3 mM EDTA, and 0.05% v/v surfactant Tween-20, pH 7.4 (HBS-ET) running buffer at 25° C. and 37° C.
(§2) The Biacore CM4 sensor surface was first derivatized by amine coupling with a monoclonal mouse anti-human Fc antibody to capture approximately 500-900 RUs anti-FcεR1α monoclonal antibodies or anti-CD3×FcεR1α bispecific monoclonal antibodies. 1 RU (response unit) represents 1 pg of protein per mm², as defined by the manufacturer. The ectodomain of human and cynomolgus FcεR1α reagents were expressed with a C-term myc-myc-6×His tag-hFcεR1α.MMH (SEQ ID NO: 57) and mfFcεR1α.MMH (SEQ ID NO: 58). Different concentrations of FcεR1α reagents were prepared in HBS-ET running buffer (600 nM-7.4 nM; serially diluted by 3-fold) and injected over anti-human Fc captured anti-FcεR1α monoclonal antibodies or anti-CD3×FcεR1α bispecific monoclonal antibodies surfaces for 1 minute at a flow rate of 30 μL/minute. The dissociation of bound FcεR1α reagents was monitored for 4 minutes in HBS-ET running buffer. Association (kₐ) and dissociation (kd) rate constants were determined by fitting the real-time binding sensorgrams to a 1:1 binding model with mass transport limitation using Biacore 8k evaluation software. Binding dissociation equilibrium constants (KD) and dissociative half-lives (t½) were calculated from the kinetic rate constants as: […]

[3] = molecular target: T3, human FcεR1α expressed on cells (human, UniProt P12319 26-257); assay: flow cytometry, 70 nM antibody on HEK293/hFcεR1α/hFcεR1β/hFcεR1γ cells, No IgE
T3 construct: whole, on cells; Co-expressed with human FcεR1β (amino acids 1-244 of Uniprot Q01362-1) and FcεR1γ (amino acids 1-86 of Uniprot P30273-1); also called hFcεR1α; HEK293/hFcεR1α/hFcεR1β/hFcεR1γ cells
T3 sequence (looked up): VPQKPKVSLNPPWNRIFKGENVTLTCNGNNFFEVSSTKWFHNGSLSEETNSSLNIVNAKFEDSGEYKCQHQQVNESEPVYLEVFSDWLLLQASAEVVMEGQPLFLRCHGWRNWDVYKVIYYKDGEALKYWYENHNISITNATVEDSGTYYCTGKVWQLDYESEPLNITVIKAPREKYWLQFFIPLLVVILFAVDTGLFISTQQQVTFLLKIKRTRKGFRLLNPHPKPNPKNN
Protocol: (§3) For flow cytometry analysis, HEK293, HEK293/hFcεR1α/hFcεR1β/hFcεR1γ and HEK293/mf FcεR1α/hFcεR1β/hFcεR1γ cells were collected after dissociation using Enzyme Free Dissociation Buffer (Millipore Cat# S-004), and the cells were pre-incubated with or without 70 nM human IgE, for 30 minutes on ice in FACS buffer (PBS, without Ca⁺⁺ and Mg⁺⁺, (Irvine Scientific, Cat#9240) containing 2% FBS). Jurkat/NFAT-luc cells were also collected. The antibodies at the concentration of 70 nM were then added to 1×10⁶ cells/well of each cell type at 4° C. for 30 minutes. […] Cells were fixed using BD CytoFix™ (Becton Dickinson, Cat. #554655) and analyzed on Accuri™ C6 (BD) or CytoFLEX Flow cytometer (Beckman Coulter). Unstained and secondary antibody alone controls were also tested for all cell lines and a sample was evaluated for viability using the Far Red Fluo viability dye (Thermo Fisher, Cat#L10120) according to the manufacturer's protocol. The results were analyzed using FlowJo software (version 10.0.8, FlowJo) to determine the geometric means of fluorescence for viable cells and the binding ratio was calculated with the mean fluorescence intensity (MFI) of the experimental condition normalized by the MFI of the unstained respective cells.

mfFcεR1α.MMH [4] = molecular target: T4, mfFcεR1α.MMH (cynomolgus (Macaca fascicularis)); assay: SPR (Biacore 8k), antibody captured on anti-human Fc, mfFcεR1α.MMH injected, 25°C
T4 construct: also called mfFceR1a.MMH; ectodomain of cynomolgus FcεR1α with C-term myc-myc-6×His tag
T4 chain: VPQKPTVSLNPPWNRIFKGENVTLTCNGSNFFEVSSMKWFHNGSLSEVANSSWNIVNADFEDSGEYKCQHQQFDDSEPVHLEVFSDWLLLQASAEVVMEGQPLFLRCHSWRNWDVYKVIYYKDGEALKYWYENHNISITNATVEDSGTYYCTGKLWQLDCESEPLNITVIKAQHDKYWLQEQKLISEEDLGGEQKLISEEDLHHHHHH
Protocol: as §1, §2

mfFcεR1α.MMH [5] = molecular target: T4, mfFcεR1α.MMH; assay: SPR (Biacore 8k), antibody captured on anti-human Fc, mfFcεR1α.MMH injected, 37°C
Protocol: as §1, §2

[6] = molecular target: T1, human CD3 expressed in Jurkat cells; assay: flow cytometry, 70 nM antibody on Jurkat/NFAT-luc cells, No IgE
Protocol: as §3

[7] = molecular target: T3, human FcεR1α expressed on cells; assay: flow cytometry, 70 nM antibody on HEK293/hFcεR1α/hFcεR1β/hFcεR1γ cells pre-incubated with 70 nM human IgE
Protocol: as §3

[8] = molecular target: T3, human FcεR1α expressed on cells; assay: cell-based or functional assay
[9] = molecular target: T3, human FcεR1α expressed on cells; assay: cell-based or functional assay; remark: listed apart in the source
[10] = molecular target: T5, monkey (cynomolgus) FcεR1α expressed on cells (cynomolgus); assay: flow cytometry, 70 nM antibody on HEK293/mfFcεR1α/hFcεR1β/hFcεR1γ cells pre-incubated with 70 nM human IgE
T5 construct: range 4-260; On HEK293 cells, co-expressed with human FcεR1β and FcεR1γ; also called mfFcεR1α; HEK293/mfFcεR1α/hFcεR1β/hFcεR1γ cells
Protocol: as §3

hFcεR1α.MMH [11] = molecular target: T2, hFcεR1α.MMH; assay: SPR (Biacore 8k), antibody captured on anti-human Fc, hFcεR1α.MMH injected, 37°C
Protocol: as §1, §2

[12] = molecular target: T5, monkey (cynomolgus) FcεR1α expressed on …; assay: flow cytometry, 70 nM antibody on HEK293/mfFcεR1α/hFcεR1β/hFcεR1γ cells, No IgE
Protocol: as §3

T1 sequence (P07766 23-207 limits assumed, chain 1 of 4): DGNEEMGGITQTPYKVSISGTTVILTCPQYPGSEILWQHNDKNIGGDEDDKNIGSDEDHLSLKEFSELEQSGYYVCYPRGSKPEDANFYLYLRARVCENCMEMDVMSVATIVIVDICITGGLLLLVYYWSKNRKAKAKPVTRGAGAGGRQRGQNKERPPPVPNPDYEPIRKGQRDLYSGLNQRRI
T1 sequence (P04234 22-171 limits assumed, chain 2 of 4): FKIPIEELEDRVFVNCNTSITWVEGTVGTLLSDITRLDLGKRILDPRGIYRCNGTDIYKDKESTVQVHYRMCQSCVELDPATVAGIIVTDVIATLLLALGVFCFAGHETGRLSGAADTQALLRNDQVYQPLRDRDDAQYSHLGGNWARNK
T1 sequence (P20963 22-164 limits assumed, chain 3 of 4): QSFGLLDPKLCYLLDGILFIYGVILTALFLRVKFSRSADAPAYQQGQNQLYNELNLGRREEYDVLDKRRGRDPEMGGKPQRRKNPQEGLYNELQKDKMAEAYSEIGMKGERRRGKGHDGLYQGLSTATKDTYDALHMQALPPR
T1 sequence (P09693 23-182 limits assumed, chain 4 of 4): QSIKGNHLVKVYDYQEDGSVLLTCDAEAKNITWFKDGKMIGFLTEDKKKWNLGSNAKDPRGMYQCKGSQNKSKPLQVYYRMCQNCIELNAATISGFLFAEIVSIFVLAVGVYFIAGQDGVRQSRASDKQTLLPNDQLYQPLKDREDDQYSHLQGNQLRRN

B1: bsAb24920D (bispecific antibody, human IgG4 S228P, kappa)
heavy 1: QVQLQESGPGLVKPSETLSLTCTVSGDSINDYYWSWLRQPPGKGLEWIGYIYYSGSTNYNPSLKSRVTISVDTSKNQFSLKLSSVTAADTAVYYCTRRNNWNYVRAFDIWGQGTMVTVSSASTKGPSVFPLAPCSRSTSESTAALGCLVKDYFPEPVTVSWNSGALTSGVHTFPAVLQSSGLYSLSSVVTVPSSSLGTKTYTCNVDHKPSNTKVDKRVESKYGPPCPPCPAPPVAGPSVFLFPPKPKDTLMISRTPEVTCVVVDVSQEDPEVQFNWYVDGVEVHNAKTKPREEQFNSTYRVVSVLTVLHQDWLNGKEYKCKVSNKGLPSSIEKTISKAKGQPREPQVYTLPPSQEEMTKNQVSLTCLVKGFYPSDIAVEWESNGQPENNYKTTPPVLDSDGSFFLYSRLTVDKSRWQEGNVFSCSVMHEALHNHYTQKSLSLSLGK
heavy 2: EVQLVESGGGLVQPGRSLRLSCAASGFTFDDYSMHWVRQAPGKGLEWVSGISWNSGSIGYADSVKGRFTISRDNAKNSLYLQMNSLRAEDTALYYCAKYGSGYGKFYYYGMDVWGQGTTVTVSSASTKGPSVFPLAPCSRSTSESTAALGCLVKDYFPEPVTVSWNSGALTSGVHTFPAVLQSSGLYSLSSVVTVPSSSLGTKTYTCNVDHKPSNTKVDKRVESKYGPPCPPCPAPPVAGPSVFLFPPKPKDTLMISRTPEVTCVVVDVSQEDPEVQFNWYVDGVEVHNAKTKPREEQFNSTYRVVSVLTVLHQDWLNGKEYKCKVSNKGLPSSIEKTISKAKGQPREPQVYTLPPSQEEMTKNQVSLTCLVKGFYPSDIAVEWESNGQPENNYKTTPPVLDSDGSFFLYSRLTVDKSRWQEGNVFSCSVMHEALHNRFTQKSLSLSPGK
light: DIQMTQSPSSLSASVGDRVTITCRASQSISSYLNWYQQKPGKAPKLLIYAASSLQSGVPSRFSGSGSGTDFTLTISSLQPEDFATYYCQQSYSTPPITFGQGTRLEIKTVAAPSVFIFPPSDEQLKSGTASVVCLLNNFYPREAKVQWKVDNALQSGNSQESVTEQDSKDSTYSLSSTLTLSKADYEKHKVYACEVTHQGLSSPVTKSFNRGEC
notes: IgG4 Fc domain; two distinct heavy chains with a common light chain; also called anti-FcεR1α×CD3 bispecific antibody; FcεR1α × hCD3
- EC50 [M], NFAT-luciferase in Jurkat/NFAT-luc with HEK293/hFcεR1α/hFcεR1β/hFcεR1γ cells, 10 nM IgE [1]: 4.9e-09 M
- EC50 [M], NFAT-luciferase in Jurkat/NFAT-luc with HEK293/hFcεR1α/hFcεR1β/hFcεR1γ cells, No IgE [1]: 6.8e-10 M
- Fold Activation, Jurkat/NFAT-luc with HEK293/hFcεR1α/hFcεR1β/hFcεR1γ cells, 10 nM IgE [1]: 25 fold
- Fold Activation, Jurkat/NFAT-luc with HEK293/hFcεR1α/hFcεR1β/hFcεR1γ cells, No IgE [1]: 23 fold
- 600 nM hFcεR1α.MMH Bound (RU) (hFcεR1α.MMH [2]): 46 RU
- Kd (hFcεR1α.MMH [2]): 303 nM
- koff (hFcεR1α.MMH [2]): 0.02 s⁻¹
- kon (hFcεR1α.MMH [2]): 65900 M⁻¹ s⁻¹
- t½ (hFcεR1α.MMH [2]): 36 s
- Binding Ratio (MFI of Treated/MFI of Unstained) [3]: 248
- 600 nM mfFceR1a.MMH Bound (RU) (mfFcεR1α.MMH [4]): 26 RU
- Kd (mfFcεR1α.MMH [4]): 467 nM
- koff (mfFcεR1α.MMH [4]): 0.0195 s⁻¹
- kon (mfFcεR1α.MMH [4]): 41700 M⁻¹ s⁻¹
- t½ (mfFcεR1α.MMH [4]): 36 s
- 600 nM mfFceR1a.MMH Bound (RU) (mfFcεR1α.MMH [5]): 10 RU
- Kd (mfFcεR1α.MMH [5]): 3350 nM
- koff (mfFcεR1α.MMH [5]): 0.0445 s⁻¹
- kon (mfFcεR1α.MMH [5]): 13300 M⁻¹ s⁻¹
- t½ (mfFcεR1α.MMH [5]): 15.6 s
- Binding Ratio (MFI of Treated/MFI of Unstained) [6]: 48
- Binding Ratio (MFI of Treated/MFI of Unstained) [7]: 201
- EC50, decrease of primary human basophils within PBMC with activated CD8+ T cells [8]: 20 nM
- Maximum percent basophil decrease, PBMC with activated CD8+ T cells [8]: 80.1%
- EC80, cleaved caspase 3+ cleaved PARP+ HEK293/hFcεR1α/hFcεR1β/hFcεR1γ target cells with activated CD8+ T cells [9]: 0.126 nM
- Maximum percent apoptotic cells, HEK293/hFcεR1α/hFcεR1β/hFcεR1γ target cells with activated CD8+ T cells [9]: 56.5%
- Binding Ratio (MFI of Treated/MFI of Unstained) [10]: 169
- 600 nM hFcεR1α.MMH Bound (RU) (hFcεR1α.MMH [11]): 19 RU
- Kd (hFcεR1α.MMH [11]): 1550 nM
- koff (hFcεR1α.MMH [11]): 0.0991 s⁻¹
- kon (hFcεR1α.MMH [11]): 63900 M⁻¹ s⁻¹
- t½ (hFcεR1α.MMH [11]): 7.2 s
- Binding Ratio (MFI of Treated/MFI of Unstained) [12]: 142

Reference: US20200062844A1 (Regeneron, published 2020)
